The values that follow come from article doi:10.1101/2021.06.29.450403.

The assay deals with recombinant rAQP4ct protein (complete cytosolic C-terminal domain of human AQP4, residues 254-323) (human) (UniProt P55087). Briefly: ITC.

For “Chicken calmodulin (CaM) (from UniProt P62149 1-149) (natural protein)”, the stoichiometry N was determined as 1.
